Reference: FireProtDB (doi:10.1006/jmbi.1995.0616)

Conditions: Hordeum vulgare; pH 6.25; 25 °C; GdnHCl; Fluorescence; MES 50 mM; reversible: yes; whole UniProt chain shown

B1: Subtilisin-chymotrypsin inhibitor-2A wild type, P01053 (protein)
chain: MSSVEKKPEGVNTGAGDRHNLKTEWPELVGKSVEEAKKVILQDKPEAQIIVLPVGTIVTMEYRIDRVRLFVDKLDNIAQVPRVG
For B1, the denaturant m value was 1.9 kcal/mol/M, the “denaturant midpoint (higher = more stable)” value was 4 M and the unfolding free energy was 7.6 kcal/mol.
